In the supplement of paper PMC10567573:

B1: PSD2 (parent)
chain: PLMGETQERERVLTHFSRRYCQCN

Variants of: B1
Experiment: protein stability index of a GFP-peptide fusion (GPS, HEK-293T) (PSI 1-6); higher = more stable
Conditions: c terminus: a fixed tail appended
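Also: lentivirally expressed fusions sorted by FACS into six bins by GFP to DsRed ratio, PSI derived from sequencing read proportions per bin multiplied by bin number.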

Going from E8W to E8V, the protein stability index rises from 1.65 to 1.71.

Going from E8P to E8D, the protein stability index rises from 2.27 to 3.46.

Compared with E8I, E8S is lower in protein stability index: 2.69 for the first, 2.39 for the second.

Going from E8G to T6Y, the protein stability index falls from 2.35 to 2.33.

First: T6R
Second: T6D
The protein stability index of the first is lower: 2.95 for the first, 2.98 for the second.

Compared with T6S, T6I is higher in protein stability index: 2.18 for the first, 2.38 for the second.

First: T6N
Second: T6F
The protein stability index of the first is lower: 2.21 for the first, 2.22 for the second.

Compared with T6G, V12E is higher in protein stability index: 2.84 for the first, 3.34 for the second.

Going from V12W to V12P, the protein stability index falls from 3.26 to 2.94.

Compared with V12R, V12N is lower in protein stability index: 3.15 for the first, 2.99 for the second.

Compared with V12M, V12F is higher in protein stability index: 2.85 for the first, 3.5 for the second.

Compared with V12G, Q22H is lower in protein stability index: 3.1 for the first, 2.62 for the second.

Going from Q22E to Q22Y, the protein stability index falls from 3.96 to 2.08.

Compared with Q22V, Q22I is higher in protein stability index: 1.69 for the first, 2.09 for the second.

First: Q22L
Second: Q7G
The protein stability index of the first is lower: 2.39 for the first, 2.42 for the second.

Going from Q7F to Q7T, the protein stability index falls from 2.73 to 2.69.

First: Q7N
Second: Q7Y
The protein stability index of the first is higher: 2.9 for the first, 2.82 for the second.

Compared with Q7L, Q7R is lower in protein stability index: 2.61 for the first, 2.26 for the second.

Going from Q7I to Q7S, the protein stability index rises from 1.97 to 3.11.

Compared with L2D, L2R is lower in protein stability index: 3.37 for the first, 3.08 for the second.

Going from L2K to L2T, the protein stability index rises from 2.57 to 3.01.

Compared with L2M, L2I is higher in protein stability index: 2.56 for the first, 3.17 for the second.

First: H15E
Second: H15S
The protein stability index of the first is higher: 4.15 for the first, 3.18 for the second.

Compared with H15C, H15W is lower in protein stability index: 2.9 for the first, 1.2 for the second.

Going from H15R to H15N, the protein stability index rises from 2.74 to 3.02.

Going from H15F to H15M, the protein stability index rises from 1.47 to 2.56.

Compared with T14M, T14E is higher in protein stability index: 2.72 for the first, 2.93 for the second.

First: T14L
Second: T14G
The protein stability index of the first is lower: 2.02 for the first, 2.83 for the second.

Going from T14R to T14H, the protein stability index falls from 2.73 to 2.65.

First: T14F
Second: N24D
The protein stability index of the first is lower: 2.63 for the first, 3.23 for the second.

First: N24I
Second: N24A
The protein stability index of the first is higher: 3.07 for the first, 3.04 for the second.

First: N24F
Second: N24K
The protein stability index of the first is higher: 2.79 for the first, 2.2 for the second.

Compared with R9E, R9H is lower in protein stability index: 4.05 for the first, 3.23 for the second.

Compared with R9C, R9F is lower in protein stability index: 2.68 for the first, 2.23 for the second.

Compared with R9Q, R9W is lower in protein stability index: 2.18 for the first, 1.46 for the second.

Compared with R9T, R9K is higher in protein stability index: 2.58 for the first, 3.21 for the second.

First: R9G
Second: R9N
The protein stability index of the first is lower: 2.98 for the first, 4.17 for the second.

Compared with S17M, S17N is higher in protein stability index: 2.51 for the first, 3.15 for the second.

First: S17I
Second: S17K
The protein stability index of the first is lower: 1.49 for the first, 2.95 for the second.

Compared with S17A, S17Q is higher in protein stability index: 2.11 for the first, 2.97 for the second.

Compared with S17L, S17F is lower in protein stability index: 1.99 for the first, 1.68 for the second.

Compared with E10K, E10R is lower in protein stability index: 2.58 for the first, 1.82 for the second.

Compared with E10L, E10M is lower in protein stability index: 2.27 for the first, 1.93 for the second.

Compared with E10I, E10A is lower in protein stability index: 2.1 for the first, 2.07 for the second.

First: E10T
Second: E10F
The protein stability index of the first is lower: 2.07 for the first, 2.19 for the second.

Compared with E10N, Y20I is lower in protein stability index: 2.8 for the first, 2.62 for the second.

Going from Y20N to Y20D, the protein stability index rises from 3.81 to 4.19.

Compared with C21K, C21G is higher in protein stability index: 2.88 for the first, 4.23 for the second.

Going from C21D to C21H, the protein stability index falls from 4.01 to 2.62.

Compared with C21M, C21P is higher in protein stability index: 3.61 for the first, 3.92 for the second.

Going from C21V to C21T, the protein stability index rises from 3.68 to 4.43.

First: C21Q
Second: C21N
The protein stability index of the first is higher: 3.67 for the first, 3.29 for the second.

Going from C21S to R18H, the protein stability index rises from 3.53 to 3.96.

Going from R18S to R18C, the protein stability index falls from 3.54 to 1.77.

Going from R18L to R19C, the protein stability index rises from 2.24 to 3.28.

Going from R19L to R19Q, the protein stability index rises from 2.4 to 3.29.

First: G4Y
Second: G4F
The protein stability index of the first is lower: 2.06 for the first, 2.31 for the second.

Compared with G4C, G4A is higher in protein stability index: 2.49 for the first, 3.3 for the second.

Going from G4T to G4I, the protein stability index falls from 3.86 to 2.76.

First: G4W
Second: L13S
The protein stability index of the first is lower: 2.07 for the first, 2.52 for the second.

First: L13E
Second: L13I
The protein stability index of the first is higher: 3.6 for the first, 3.55 for the second.

Going from L13G to L13F, the protein stability index falls from 3.52 to 2.51.

Going from L13K to L13T, the protein stability index falls from 3.57 to 2.65.

First: L13D
Second: L13R
The protein stability index of the first is lower: 3.18 for the first, 4.15 for the second.

First: L13A
Second: M3L
The protein stability index of the first is lower: 2.71 for the first, 3.15 for the second.

First: M3I
Second: M3F
The protein stability index of the first is lower: 2.37 for the first, 2.77 for the second.

Going from M3P to F16I, the protein stability index falls from 2.72 to 2.67.

Compared with F16V, F16C is higher in protein stability index: 3 for the first, 4.41 for the second.

Going from F16T to F16N, the protein stability index falls from 3.91 to 3.58.

First: F16H
Second: F16D
The protein stability index of the first is lower: 4.05 for the first, 4.44 for the second.

First: R11F
Second: R11L
The protein stability index of the first is lower: 1.85 for the first, 3.11 for the second.

First: R11A
Second: R11Q
The protein stability index of the first is lower: 3.42 for the first, 3.46 for the second.

First: R11P
Second: R11C
The protein stability index of the first is lower: 3.02 for the first, 3.88 for the second.

Going from E5F to E5G, the protein stability index falls from 2.74 to 2.46.

Compared with E5I, E5N is higher in protein stability index: 2.64 for the first, 2.69 for the second.

Going from P1A to P1C, the protein stability index rises from 1.96 to 2.34.

Compared with P1D, P1N is higher in protein stability index: 1.82 for the first, 2.97 for the second.

Going from P1F to P1T, the protein stability index rises from 2.48 to 2.58.

Going from P1K to P1Y, the protein stability index rises from 2.25 to 3.12.

Compared with C23L, C23Y is lower in protein stability index: 2.9 for the first, 2.85 for the second.

Compared with C23I, C23G is higher in protein stability index: 2.99 for the first, 3.56 for the second.

For C23A, the protein stability index was 4.01.
